{
  "source": "patent US6667388B2",
  "about": "“Peptide inhibitor of MMP activity and angiogenesis” (Beth Israel Deaconess Medical Center, priority 2001, dated 2003)",
  "key": {"proMMP-9": {"target": "T1, proMMP-9 (Homo sapiens, UniProt P14780)", "T1 construct": "purchased CALBIOCHEM", "T1 sequence (P14780 20-707 limits assumed)": "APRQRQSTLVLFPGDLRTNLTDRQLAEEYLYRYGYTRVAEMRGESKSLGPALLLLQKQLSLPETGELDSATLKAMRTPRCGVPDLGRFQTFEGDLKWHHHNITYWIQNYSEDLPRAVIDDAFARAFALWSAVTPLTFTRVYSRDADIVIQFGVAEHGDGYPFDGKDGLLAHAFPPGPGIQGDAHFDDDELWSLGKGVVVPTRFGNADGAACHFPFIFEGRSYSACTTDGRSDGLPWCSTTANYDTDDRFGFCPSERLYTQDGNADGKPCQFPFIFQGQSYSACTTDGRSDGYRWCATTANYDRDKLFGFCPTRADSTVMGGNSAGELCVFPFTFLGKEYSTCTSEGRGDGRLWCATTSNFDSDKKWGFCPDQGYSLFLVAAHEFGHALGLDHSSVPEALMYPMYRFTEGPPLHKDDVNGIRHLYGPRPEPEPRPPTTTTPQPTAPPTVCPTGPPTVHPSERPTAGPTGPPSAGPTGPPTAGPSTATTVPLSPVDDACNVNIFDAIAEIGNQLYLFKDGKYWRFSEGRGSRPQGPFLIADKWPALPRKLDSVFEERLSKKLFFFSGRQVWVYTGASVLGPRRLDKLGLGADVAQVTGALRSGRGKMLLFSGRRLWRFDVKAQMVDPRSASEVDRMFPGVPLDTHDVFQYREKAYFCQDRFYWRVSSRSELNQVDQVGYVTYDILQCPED", "assay": "MMP enzymatic assay with [3H]-labeled gelatin substrate, basal activity of proMMP-9", "type": "biochemical", "conditions": "peptide tested as MBP fusion protein; proMMP9 preincubated at 37° C. for 2 hours with 10 or 100 ng, then [3H]-labeled substrate for 1 hour; FIG. 2", "method": "FIG. 2: is a bar graph depicting the inhibitory effect of the peptide of the invention on MMP-9 activity in an in vitro assay. ProMMP9 was preincubated at 37° C. for 2 hours with 10 or 100 ng of recombinant MBP-peptide fusion protein (MBP-29) followed by addition of [^3H]-labeled substrate for 1 hour.\n(§1) For expression of the peptide as a fusion protein for subsequent use in MMP-9 inhibition assays, the cDNA encoding the peptide in SEQ ID NO:2 was cloned into the prokaryotic expression vector pMAL.c2× (NEN). The peptide was expressed as a fusion with the maltose binding protein (MBP) in the bacterial strain, BL21-codon plus (STRATAGENE). The bacteria were transformed using any standard method known in the art and grown at 37° C., as recommended by the supplier. The bacterial culture was supplemented with IPTG (isopropyl B-D-thiogalacto pyranoside) to a final concentration of 0.3 mM and grown further. The fusion protein with MBP was subsequently extracted from the bacterial cells using purified amylose resin. ProMMP (CALBIOCHEM) was used for assessing functionality of the bacterially expressed MBP-fusion peptide.\n(§2) The enzymatic assays were performed using [3H]-labeled gelatin substrate. […] The radioactivity in the TCA soluble fraction was determined by a β-scintillation counter which gives a measure of the enzymatic activity of MMP-9."}, "[1]": {"target": "T2, proMMP-9 activated by MMP3 (Homo sapiens, UniProt P14780)", "T2 construct": "purchased CALBIOCHEM", "T2 sequence (P14780 107-707 limits assumed)": "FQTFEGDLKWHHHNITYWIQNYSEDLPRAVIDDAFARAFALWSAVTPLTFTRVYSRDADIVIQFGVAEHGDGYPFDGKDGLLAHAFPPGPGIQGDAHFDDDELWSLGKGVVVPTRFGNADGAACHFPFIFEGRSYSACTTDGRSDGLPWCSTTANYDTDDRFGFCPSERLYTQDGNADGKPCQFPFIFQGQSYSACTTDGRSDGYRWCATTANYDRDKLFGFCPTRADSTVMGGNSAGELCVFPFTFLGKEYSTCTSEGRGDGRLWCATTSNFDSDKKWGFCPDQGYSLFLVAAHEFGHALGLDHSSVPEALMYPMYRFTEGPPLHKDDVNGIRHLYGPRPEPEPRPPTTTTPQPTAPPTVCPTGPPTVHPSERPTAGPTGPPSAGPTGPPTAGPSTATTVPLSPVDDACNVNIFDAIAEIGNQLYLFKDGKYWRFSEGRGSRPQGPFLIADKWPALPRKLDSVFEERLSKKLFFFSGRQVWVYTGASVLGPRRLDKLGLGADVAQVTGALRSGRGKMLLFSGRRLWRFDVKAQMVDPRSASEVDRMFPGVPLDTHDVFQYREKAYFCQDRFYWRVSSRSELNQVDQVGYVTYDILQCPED", "assay": "MMP enzymatic assay with [3H]-labeled gelatin substrate, proMMP-9 activated by MMP3", "type": "biochemical", "conditions": "peptide tested as MBP fusion protein; proMMP-9 activated with MBP-MMP3, incubated for 2 hours; FIG. 3", "method": "FIG. 3: is a bar graph depicting the inhibitory effect of the peptide of the invention on activated MMP-9 in an in vitro assay. ProMMP-9 activated with MBP-MMP3 was incubated for 2 hours with control protein or recombinant MBP-peptide fusion protein (MBP-29).\nas §1, §2"}, "mouse TSP2-TSR": {"target": "T3, mouse TSP2-TSR (Mus musculus, UniProt Q03350)", "T3 construct": "The TSP-1 and TSP-2 TSR regions corresponded to nucleotides 1342-1861 and 1356-1876 of TSP-1 and TSP-2 respectively; expressed in transfected cells; host or cells: S. cerevisiae strain Y190 (bait vector pAS2-2)", "T3 sequence (Q03350 381-552)": "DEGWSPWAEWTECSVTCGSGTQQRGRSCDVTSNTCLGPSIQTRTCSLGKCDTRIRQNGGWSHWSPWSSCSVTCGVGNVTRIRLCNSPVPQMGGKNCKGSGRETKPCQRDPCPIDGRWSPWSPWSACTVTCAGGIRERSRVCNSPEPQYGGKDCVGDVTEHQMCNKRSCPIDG", "assay": "Yeast two-hybrid screen with TSP2-TSR as bait", "type": "binding", "conditions": "transactivation of reporter genes HIS3 and lacZ", "method": "Generally, the nomenclature and the laboratory procedures in recombinant DNA technology described here are well known to those skilled in the art and are commonly employed in the art. The peptide of SEQ ID NO:1 was isolated by the yeast two-hybrid system using the MATCHMAKER two-hybrid system from CLONTECH.\nThe S. cerevisiae strain Y190 (CLONTECH, CA) was used for cDNA library screening and for direct testing of protein—protein interactions. The cells were grown at 30° C. either in rich YPD media or minimal media with the appropriate amino-acid supplements. The minimal media were SD-Trp, in which tryptophan was omitted; SD-Leu, in which leucine was omitted; SD-Trp, Leu, in which both tryptophan and leucine were omitted, and SD-Trp, leu, His, in which tryptophan, leucne and histidine were lacking.\nThe constructs for use in the yeast two-hybrid system were based on the GAL4 two-hybrid system 2, which includes the cloning vectors pAS2-1 and pACT2 (CLONTECH, CA). […] A bait vector with a second reading frame, designated pAS2-2, was constructed by linearizing the pAS2-1 with NcoI and filling-in using T4 DNA polymerase. […]\nDuring the screen, the interaction between the bait (TSP1-TSR or TSP2-TSR) and the prey (NIH3T3 translational library) were assessed by their ability to transactivate the reporter genes HIS3 and lacZ. […]"}},
  "data": [
    {"sequence": "APWNCCPVSCCGNCCFFRAL QSCPQG (APWNCCPVSCCGNCCFFRALQSCPQG; OTHER INFORMATION: Peptide Inhibitor of MMP- 9 Activity and Angiogenesis) [peptide of SEQ ID NO:1]", "values": [
      {"measurement": "inhibition of MMP-9 activity (basal activity of proMMP-9)", "setting": "proMMP-9", "result": "inhibited MMP-9 activity in a dose-dependent manner"},
      {"measurement": "inhibition of MMP-3 dependent activation of MMP (activated MMP-9)", "setting": "[1]", "result": "inhibited in a dose-dependent manner"},
      {"measurement": "interaction with TSP-2", "setting": "mouse TSP2-TSR", "result": "isolated as an interactor of TSP-2"}
    ]}
  ]
}
